Data from patent US20230183713A1, “SITE-SPECIFIC RECOMBINASES FOR EFFICIENT AND SPECIFIC GENOME EDITING” (TECHNISCHE UNIVERSITÄt DRESDEN, published 2023).
Where a chain is given by its changes, count along the chain named. Names and notes keep the numbering of the source.

T1: Cre recombinase monomer with E176H mutation
T1 chain: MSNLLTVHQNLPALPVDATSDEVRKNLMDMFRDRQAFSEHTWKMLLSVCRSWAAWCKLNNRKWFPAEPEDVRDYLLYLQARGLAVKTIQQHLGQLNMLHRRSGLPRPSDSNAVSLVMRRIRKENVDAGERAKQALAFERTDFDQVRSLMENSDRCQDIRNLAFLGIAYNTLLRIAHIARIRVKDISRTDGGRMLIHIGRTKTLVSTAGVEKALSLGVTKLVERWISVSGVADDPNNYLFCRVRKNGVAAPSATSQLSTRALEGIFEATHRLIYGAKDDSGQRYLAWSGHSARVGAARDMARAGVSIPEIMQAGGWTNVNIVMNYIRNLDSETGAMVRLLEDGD

T2: Cre recombinase monomer with K201F mutation
T2 chain: T1 chain with H176E, K201F

T3: Cre recombinase monomer with Q311R mutation
T3 chain: T1 chain with H176E, Q311R

T4: Cre recombinase monomer with W315M mutation
T4 chain: T1 chain with H176E, W315M

T5: Cre recombinase monomer with Y324N mutation
T5 chain: T1 chain with H176E, Y324N

T6: Cre recombinase monomer with R292W mutation
T6 chain: T1 chain with H176E, R292W

T7: Cre recombinase monomer with W315I mutation
T7 chain: T1 chain with H176E, W315I

T8: Cre recombinase monomer with Y324M mutation
T8 chain: T1 chain with H176E, Y324M

T9: Cre recombinase monomer with E176I mutation
T9 chain: T1 chain with H176I

T10: Cre recombinase monomer with E176V mutation
T10 chain: T1 chain with H176V

T11: Cre recombinase monomer with K201W mutation
T11 chain: T1 chain with H176E, K201W

T12: Cre recombinase monomer with Y324E mutation
T12 chain: T1 chain with H176E, Y324E

B1: Cre recombinase monomer with R173L mutation (protein)
chain: T1 chain with R173L, H176E
B2: Cre recombinase monomer with R173N mutation (protein)
chain: T1 chain with R173N, H176E
B3: Cre recombinase monomer with R173T mutation (protein)
chain: T1 chain with R173T, H176E
B4: Cre recombinase monomer with R173S mutation (protein)
chain: T1 chain with R173S, H176E

Key:
[1] = molecular target: T1, Cre recombinase monomer with E176H …
[2] = molecular target: T2, Cre recombinase monomer with K201F …
[3] = molecular target: T3, Cre recombinase monomer with Q311R …
[4] = molecular target: T4, Cre recombinase monomer with W315M …
[5] = molecular target: T5, Cre recombinase monomer with Y324N …
[6] = molecular target: T6, Cre recombinase monomer with R292W …
[7] = molecular target: T7, Cre recombinase monomer with W315I …
[8] = molecular target: T8, Cre recombinase monomer with Y324M …
[9] = molecular target: T9, Cre recombinase monomer with E176I …
[10] = molecular target: T10, Cre recombinase monomer with E176V …
[11] = molecular target: T11, Cre recombinase monomer with K201W …
[12] = molecular target: T12, Cre recombinase monomer with Y324E …

Protein	Median dimer activity (recombination on loxP) [1] [%]	Median dimer activity (recombination on loxP) [2] [%]	Median dimer activity (recombination on loxP) [3] [%]	Median dimer activity (recombination on loxP) [4] [%]	Median dimer activity (recombination on loxP) [5] [%]	Median dimer activity (recombination on loxP) [6] [%]	Median dimer activity (recombination on loxP) [7] [%]	Median dimer activity (recombination on loxP) [8] [%]	Median dimer activity (recombination on loxP) [9] [%]	Median dimer activity (recombination on loxP) [10] [%]	Median dimer activity (recombination on loxP) [11] [%]	Median dimer activity (recombination on loxP) [12] [%]
B1	66	41	94	63	88							
B2			96			44	38	51				
B3	56		92						72	65	91	
B4			97							49		59
